{
  "source": "IntAct's records for PubMed 17127621",
  "parents": {"B1": {"name": "Monocarboxylate transporter 1 (Rattus norvegicus (Rat)), P53987 (parent)", "chain": "MPPAIGGPVGYTPPDGGWGWAVVVGAFISIGFSYAFPKSITVFFKEIEIIFSATTSEVSWISSIMLAVMYAGGPISSILVNKYGSRPVMIAGGCLSGCGLIAASFCNTVQELYFCIGVIGGLGLAFNLNPALTMIGKYFYKKRPLANGLAMAGSPVFLSTLAPLNQAFFGIFGWRGSFLILGGLLLNCCVAGSLMRPIGPQQGKVEKLKSKESLQEAGKSDANTDLIGGSPKGEKLSVFQTVNKFLDLSLFTHRGFLLYLSGNVVMFFGLFTPLVFLSNYGKSKHFSSEKSAFLLSILAFVDMVARPSMGLAANTRWIRPRVQYFFAASVVANGVCHLLAPLSTTYVGFCIYAGVFGFAFGWLSSVLFETLMDLVGPQRFSSAVGLVTIVECCPVLLGPPLLGRLNDMYGDYKYTYWACGVILIIAGLYLFIGMGINYRLVAKEQKAEEKKRDGKEDETSTDVDEKPKKTMKETQSPAPLQNSSGDPAEEESPV"}, "B2": {"name": "Basigin (Homo sapiens), P35613 (parent)", "chain": "MAAALFVLLGFALLGTHGASGAAGFVQAPLSQQRWVGGSVELHCEAVGSPVPEIQWWFEGQGPNDTCSQLWDGARLDRVHIHATYHQHAASTISIDTLVEEDTGTYECRASNDPDRNHLTRAPRVKWVRAQAVVLVLEPGTVFTTVEDLGSKILLTCSLNDSATEVTGHRWLKGGVVLKEDALPGQKTEFKVDSDDQWGEYSCVFLPEPMGTANIQLHGPPRVKAVKSSEHINEGETAMLVCKSESVPPVTDWAWYKITDSEDKALMNGSESRFFVSSSQGRSELHIENLNMEADPGQYRCNGTSSKGSDQAIITLRVRSHLAALWPFLGIVAEVLVLVTIIFIYEKRRKPEDVLDDDDAGSAPLKSSGQHQNDKGKNVRQRNSS", "partner": "B1 chain"}},
  "key": {"[1]": {"variants_of": "B1", "details": "with basi_human BSG"}, "[2]": {"variants_of": "B1", "details": "with basi_human BSG", "remark": "listed apart in the source"}, "[3]": {"variants_of": "B2", "details": "with mot1_rat Slc16a1, P53987"}, "[4]": {"variants_of": "B2", "details": "with mot1_rat Slc16a1, P53987", "remark": "listed apart in the source"}},
  "data": [
    {"variant": "MPPAIGGPVGYTPPDGGWGWAVVVGAFISIGFSYAFPKSITVFFKEIEIIFSATTSEVSWISSIMLAVMYAGGPISSILVNKYGSRPVMIAGGCLSGCGLIAASFCNTVQELYFCIGVIGGLGLAFNLNPALTMIGKYFYKKRPLANGLAMAGSPVFLSTLAPLNQAFFGIFGWRGSFLILGGLLLNCCVAGSLMEPIGPQQGKVEKLKSKESLQEAGKSDANTDLIGGSPKGEKLSVFQTVNKFLDLSLFTHRGFLLYLSGNVVMFFGLFTPLVFLSNYGKSKHFSSEKSAFLLSILAFVDMVARPSMGLAANTRWIRPRVQYFFAASVVANGVCHLLAPLSTTYVGFCIYAGVFGFAFGWLSSVLFETLMDLVGPQRFSSAVGLVTIVECCPVLLGPPLLGRLNDMYGDYKYTYWACGVILIIAGLYLFIGMGINYRLVAKEQKAEEKKRDGKEDETSTDVDEKPKKTMKETQSPAPLQNSSGDPAEEESPV", "note": "[R196E]", "values": [
      {"measurement": "effect of a mutation on the interaction", "setting": "[1]", "result": "disrupting interaction strength"}
    ]},
    {"variant": "MPPAIGGPVGYTPPDGGWGWAVVVGAFISIGFSYAFPKSITVFFKEIEIIFSATTSEVSWISSIMLAVMYAGGPISSILVNKYGSEPVMIAGGCLSGCGLIAASFCNTVQELYFCIGVIGGLGLAFNLNPALTMIGKYFYKKRPLANGLAMAGSPVFLSTLAPLNQAFFGIFGWRGSFLILGGLLLNCCVAGSLMRPIGPQQGKVEKLKSKESLQEAGKSDANTDLIGGSPKGEKLSVFQTVNKFLDLSLFTHRGFLLYLSGNVVMFFGLFTPLVFLSNYGKSKHFSSEKSAFLLSILAFVDMVARPSMGLAANTRWIRPRVQYFFAASVVANGVCHLLAPLSTTYVGFCIYAGVFGFAFGWLSSVLFETLMDLVGPQRFSSAVGLVTIVECCPVLLGPPLLGRLNDMYGDYKYTYWACGVILIIAGLYLFIGMGINYRLVAKEQKAEEKKRDGKEDETSTDVDEKPKKTMKETQSPAPLQNSSGDPAEEESPV", "note": "[R86E]", "values": [
      {"measurement": "effect of a mutation on the interaction", "setting": "[1]", "result": "with no effect"},
      {"measurement": "effect of a mutation on the interaction", "setting": "[2]", "result": "decreasing interaction strength"}
    ]},
    {"variant": "MPPAIGGPVGYTPPDGGWGWAVVVGAFISIGFSYAFPKSITVFFKEIEIIFSATTSEVSWISSIMLAVMYAGGPISSILVNKYGSQPVMIAGGCLSGCGLIAASFCNTVQELYFCIGVIGGLGLAFNLNPALTMIGKYFYKKRPLANGLAMAGSPVFLSTLAPLNQAFFGIFGWRGSFLILGGLLLNCCVAGSLMRPIGPQQGKVEKLKSKESLQEAGKSDANTDLIGGSPKGEKLSVFQTVNKFLDLSLFTHRGFLLYLSGNVVMFFGLFTPLVFLSNYGKSKHFSSEKSAFLLSILAFVDMVARPSMGLAANTRWIRPRVQYFFAASVVANGVCHLLAPLSTTYVGFCIYAGVFGFAFGWLSSVLFETLMDLVGPQRFSSAVGLVTIVECCPVLLGPPLLGRLNDMYGDYKYTYWACGVILIIAGLYLFIGMGINYRLVAKEQKAEEKKRDGKEDETSTDVDEKPKKTMKETQSPAPLQNSSGDPAEEESPV", "note": "[R86Q]", "values": [
      {"measurement": "effect of a mutation on the interaction", "setting": "[1]", "result": "with no effect"},
      {"measurement": "effect of a mutation on the interaction", "setting": "[2]", "result": "decreasing interaction strength"}
    ]},
    {"variant": "MAAALFVLLGFALLGTHGASGAAGFVQAPLSQQRWVGGSVELHCEAVGSPVPEIQWWFEGQGPNDTCSQLWDGARLDRVHIHATYHQHAASTISIDTLVEEDTGTYECRASNDPDRNHLTRAPRVKWVRAQAVVLVLEPGTVFTTVEDLGSKILLTCSLNDSATEVTGHRWLKGGVVLKEDALPGQKTEFKVDSDDQWGEYSCVFLPEPMGTANIQLHGPPRVKAVKSSEHINEGETAMLVCKSESVPPVTDWAWYKITDSEDKALMNGSESRFFVSSSQGRSELHIENLNMEADPGQYRCNGTSSKGSDQAIITLRVRSHLAALWPFLGIVARVLVLVTIIFIYEKRRKPEDVLDDDDAGSAPLKSSGQHQNDKGKNVRQRNSS", "note": "[E334R]", "values": [
      {"measurement": "effect of a mutation on the interaction", "setting": "[3]", "result": "decreasing interaction strength"}
    ]},
    {"variant": "MAAALFVLLGFALLGTHGASGAAGFVQAPLSQQRWVGGSVELHCEAVGSPVPEIQWWFEGQGPNDTCSQLWDGARLDRVHIHATYHQHAASTISIDTLVEEDTGTYECRASNDPDRNHLTRAPRVKWVRAQAVVLVLEPGTVFTTVEDLGSKILLTCSLNDSATEVTGHRWLKGGVVLKEDALPGQKTEFKVDSDDQWGEYSCVFLPEPMGTANIQLHGPPRVKAVKSSEHINEGETAMLVCKSESVPPVTDWAWYKITDSEDKALMNGSESRFFVSSSQGRSELHIENLNMEADPGQYRCNGTSSKGSDQAIITLRVRSHLAALWPFLGIVAQVLVLVTIIFIYEKRRKPEDVLDDDDAGSAPLKSSGQHQNDKGKNVRQRNSS", "note": "[E334Q]", "values": [
      {"measurement": "effect of a mutation on the interaction", "setting": "[3]", "result": "decreasing interaction strength"},
      {"measurement": "effect of a mutation on the interaction", "setting": "[4]", "result": "with no effect"}
    ]}
  ]
}
